The target in experiment [1] is T1, CD5 on human T cells (autologous and allogeneic Pan-T cells) and on the T-ALL cell line CCRF-CEM (human, UniProt P06127 25-495).
T1 sequence (looked up): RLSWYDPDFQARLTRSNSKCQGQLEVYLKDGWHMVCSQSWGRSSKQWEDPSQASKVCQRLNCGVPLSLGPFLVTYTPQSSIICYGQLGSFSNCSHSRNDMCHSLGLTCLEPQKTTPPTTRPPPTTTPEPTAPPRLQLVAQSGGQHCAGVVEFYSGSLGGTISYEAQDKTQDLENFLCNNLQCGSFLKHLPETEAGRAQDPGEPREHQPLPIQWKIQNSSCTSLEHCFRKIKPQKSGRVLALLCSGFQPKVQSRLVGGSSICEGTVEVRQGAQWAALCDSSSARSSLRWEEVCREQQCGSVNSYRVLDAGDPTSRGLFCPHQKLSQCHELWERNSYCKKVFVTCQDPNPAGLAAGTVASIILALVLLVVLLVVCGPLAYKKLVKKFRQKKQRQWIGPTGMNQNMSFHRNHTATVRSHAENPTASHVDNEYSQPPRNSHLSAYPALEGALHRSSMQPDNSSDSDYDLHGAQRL
The experiment is described as follows: cell-based or functional assay.

Experiment [2] addresses T2, CD33 human protein-PE (Sino Biological, 12238-HCCH_P) (human, UniProt P20138 18-259, PE label).
T2 construct: Bought staining reagent; also called CD33 antigen
In words: flow cytometry; CAR-T cells stained with CD33 human protein-PE. How it is done:
CD3 and CD5 are stained with a CD3-FITC antibody (BD Biosciences, #555339) and a CD5-APC antibody (BD Biosciences, #555355) for 30 minutes at R.T. in the dark. CAR5 surface expression is detected by staining with Human CD5 Protein, HisTag (AcroBiosystems, Cat #CD5-H52H5) for 1 hour at R.T., washed and then incubated with His-APC antibody (R&D Systems, IC050A) for 30 minutes at R.T. in the dark. CAR33 expression is stained with CD33 human protein-PE (Sino Biological, 12238-HCCH_P) for 1 hour at R.T. All the staining is performed at 1:10 dilutions. DAPI (Thermo Scientific, Cat #BV-421, 1:5000) is used to stain dead cells before running by the Attune NxT Flow Cytometer (Thermo Fisher Scientific). Data is further analyzed by either using Attune NxT flow software or FlowJo software.

Numbering of substitutions follows the chain as printed.

T2 sequence (P20138 18-259 limits assumed): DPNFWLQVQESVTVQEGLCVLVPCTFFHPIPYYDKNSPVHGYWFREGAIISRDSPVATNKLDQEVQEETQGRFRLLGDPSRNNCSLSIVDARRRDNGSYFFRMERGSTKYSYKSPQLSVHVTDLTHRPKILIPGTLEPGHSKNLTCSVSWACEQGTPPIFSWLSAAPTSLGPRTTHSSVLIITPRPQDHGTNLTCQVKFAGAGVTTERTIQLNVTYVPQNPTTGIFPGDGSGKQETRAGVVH

B1: CD5/CD33 Dual-CAR, construct S049 (other)
chain: DIQMTQSPSSLSASVGDRVTITCRASESVDNYGISFMNWFQQKPGKAPKLLIYAASNQGSGVPSRFSGSGSGTDFTLTISSLQPDDFATYYCQQSKEVPWTFGQGTKVEIKGGGGSGGGGSGGGGSQVQLVQSGAEVKKPGSSVKVSCKASGYTFTDYNMHWVRQAPGQGLEWIGYIYPYNGGTGYNQKFKSKATITADESTNTAYMELSSLRSEDTAVYYCARGRPAMDYWGQGTLVTVSSASTTTPAPRPPTPAPTIASQPLSLRPEACRPAAGGAVHTRGLDFACDIYIWAPLAGTCGVLLLSLVITLYCKRGRKKLLYIFKQPFMRPVQTTQEEDGCSCRFPEEEEGGCELRVKFSRSADAPAYKQGQNQLYNELNLGRREEYDVLDKRRGRDPEMGGKPRRKNPQEGLYNELQKDKMAEAYSEIGMKGERRRGKGHDGLYQGLSTATKDTYDALHMQALPPRGSGATNFSLLKQAGDVEENPGPMALPVTALLLPLALLLHAARPDIQMTQSPSSLSASVGDRVTITCRASQDINSYLSWFQQKPGKAPKTLIYRANRLESGVPSRFSGSGSGTDYTLTISSLQYEDFGIYYCQQYDESPWTFGGGTKLEIKGGGGSGGGGSGGGGSEIQLVQSGGGLVKPGGSVRISCAASGYTFTNYGMNWVRQAPGKGLEWMGWINTHTGEPTYADSFKGRFTFSLDDSKNTAYLQINSLRAEDTAVYFCTRRGYDWYFDVWGQGTTVTVSSSGTTTPAPRPPTPAPTIASQPLSLRPEACRPAAGGAVHTRGLDFACDIYIWAPLAGTCGVLLLSLVITLYCKRGRKKLLYIFKQPFMRPVQTTQEEDGCSCRFPEEEEGGCELRVKFSRSADAPAYKQGQNQLYNELNLGRREEYDVLDKRRGRDPEMGGKPRRKNPQEGLYNELQKDKMAEAYSEIGMKGERRRGKGHDGLYQGLSTATKDTYDALHMQALPPRFE
Turning to B1, in experiment [1], the “elimination of CCRF-CEM cells after 18 hours (luciferase-based killing assay)” value (“elimination of CCRF-CEM cells” for short) was approximately 100%.

B2: CD5/CD33 Dual-CAR, construct S043 (other)
chain: QVQLVQSGAEVKKPGSSVKVSCKASGYTFTDYNMHWVRQAPGQGLEWIGYIYPYNGGTGYNQKFKSKATITADESTNTAYMELSSLRSEDTAVYYCARGRPAMDYWGQGTLVTVSSGGGGSDIQMTQSPSSLSASVGDRVTITCRASQDINSYLSWFQQKPGKAPKTLIYRANRLESGVPSRFSGSGSGTDYTLTISSLQYEDFGIYYCQQYDESPWTFGGGTKLEIKGSTSGSGKPGSGEGSTKGEIQLVQSGGGLVKPGGSVRISCAASGYTFTNYGMNWVRQAPGKGLEWMGWINTHTGEPTYADSFKGRFTFSLDDSKNTAYLQINSLRAEDTAVYFCTRRGYDWYFDVWGQGTTVTVSSGGGGSDIQMTQSPSSLSASVGDRVTITCRASESVDNYGISFMNWFQQKPGKAPKLLIYAASNQGSGVPSRFSGSGSGTDFTLTISSLQPDDFATYYCQQSKEVPWTFGQGTKVEIKASTTTPAPRPPTPAPTIASQPLSLRPEACRPAAGGAVHTRGLDFACDIYIWAPLAGTCGVLLLSLVITLYCKRGRKKLLYIFKQPFMRPVQTTQEEDGCSCRFPEEEEGGCELRVKFSRSADAPAYKQGQNQLYNELNLGRREEYDVLDKRRGRDPEMGGKPRRKNPQEGLYNELQKDKMAEAYSEIGMKGERRRGKGHDGLYQGLSTATKDTYDALHMQALPPR
B2: in experiment [1], the “elimination of CCRF-CEM cells” value was approximately 100%.

B3: CD33 CAR CAR33-2, construct S012 (other)
chain: QVQLVQSGAEVKKPGSSVKVSCKASGYTFTDYNMHWVRQAPGQGLEWIGYIYPYNGGTGYNQKFKSKATITADESTNTAYMELSSLRSEDTAVYYCARGRPAMDYWGQGTLVTVSSGGGGSGGGGSGGGGSDIQMTQSPSSLSASVGDRVTITCRASESVDNYGISFMNWFQQKPGKAPKLLIYAASNQGSGVPSRFSGSGSGTDFTLTISSLQPDDFATYYCQQSKEVPWTFGQGTKVEIKASTTTPAPRPPTPAPTIASQPLSLRPEACRPAAGGAVHTRGLDFACDIYIWAPLAGTCGVLLLSLVITLYCKRGRKKLLYIFKQPFMRPVQTTQEEDGCSCRFPEEEEGGCELRVKFSRSADAPAYKQGQNQLYNELNLGRREEYDVLDKRRGRDPEMGGKPRRKNPQEGLYNELQKDKMAEAYSEIGMKGERRRGKGHDGLYQGLSTATKDTYDALHMQALPPR
notes: Chimeric antigen receptor on T cells
Take B3: in experiment [2], the binding result was “binds”.

B4: CD33 CAR CAR33-4, construct S014 (other)
chain: QVQLQQPGAEVVKPGASVKMSCKASGYTFTSYYIHWIKQTPGQGLEWVGVIYPGNDDISYNQKFQGKATLTADKSSTTAYMQLSSLTSEDSAVYYCAREVRLRYFDVWGQGTTVTVSSGGGGSGGGGSGGGGSEIVLTQSPGSLAVSPGERVTMSCKSSQSVFFSSSQKNYLAWYQQIPGQSPRLLIYWASTRESGVPDRFTGSGSGTDFTLTISSVQPEDLAIYYCHQYLSSRTFGQGTKLEIKRASTTTPAPRPPTPAPTIASQPLSLRPEACRPAAGGAVHTRGLDFACDIYIWAPLAGTCGVLLLSLVITLYCKRGRKKLLYIFKQPFMRPVQTTQEEDGCSCRFPEEEEGGCELRVKFSRSADAPAYKQGQNQLYNELNLGRREEYDVLDKRRGRDPEMGGKPRRKNPQEGLYNELQKDKMAEAYSEIGMKGERRRGKGHDGLYQGLSTATKDTYDALHMQALPPR
notes: as for B3
With B4, in experiment [2], the binding result was “binds”.

B5: CD33 CAR CAR33-6, construct S016 (other)
chain: B4 chain with Q65K, Q110A, E134N, V136M, G142S, P148A, R151K, R184K, P219S, Q238G
notes: as for B3
B5: in experiment [2], the binding result is on record as “binds”.

B6: CD33 CAR CAR33-1, construct S011 (other)
chain: DIQMTQSPSSLSASVGDRVTITCRASESVDNYGISFMNWFQQKPGKAPKLLIYAASNQGSGVPSRFSGSGSGTDFTLTISSLQPDDFATYYCQQSKEVPWTFGQGTKVEIKGGGGSGGGGSGGGGSQVQLVQSGAEVKKPGSSVKVSCKASGYTFTDYNMHWVRQAPGQGLEWIGYIYPYNGGTGYNQKFKSKATITADESTNTAYMELSSLRSEDTAVYYCARGRPAMDYWGQGTLVTVSSASTTTPAPRPPTPAPTIASQPLSLRPEACRPAAGGAVHTRGLDFACDIYIWAPLAGTCGVLLLSLVITLYCKRGRKKLLYIFKQPFMRPVQTTQEEDGCSCRFPEEEEGGCELRVKFSRSADAPAYKQGQNQLYNELNLGRREEYDVLDKRRGRDPEMGGKPRRKNPQEGLYNELQKDKMAEAYSEIGMKGERRRGKGHDGLYQGLSTATKDTYDALHMQALPPR
notes: as for B3
Take B6: the binding result in experiment [2] is “binds”.

B7: CD5/CD33 Dual-CAR, construct S048 (other)
chain: DIQMTQSPSSLSASVGDRVTITCRASESVDNYGISFMNWFQQKPGKAPKLLIYAASNQGSGVPSRFSGSGSGTDFTLTISSLQPDDFATYYCQQSKEVPWTFGQGTKVEIKGGGGSGGGGSGGGGSQVQLVQSGAEVKKPGSSVKVSCKASGYTFTDYNMHWVRQAPGQGLEWIGYIYPYNGGTGYNQKFKSKATITADESTNTAYMELSSLRSEDTAVYYCARGRPAMDYWGQGTLVTVSSASTTTPAPRPPTPAPTIASQPLSLRPEACRPAAGGAVHTRGLDFACDIYIWAPLAGTCGVLLLSLVITLYCKRGRKKLLYIFKQPFMRPVQTTQEEDGCSCRFPEEEEGGCELRVKFSRSADAPAYKQGQNQLYNELNLGRREEYDVLDKRRGRDPEMGGKPRRKNPQEGLYNELQKDKMAEAYSEIGMKGERRRGKGHDGLYQGLSTATKDTYDALHMQALPPRGSGATNFSLLKQAGDVEENPGPMALPVTALLLPLALLLHAARPDIKMTQSPSSMYASLGERVTITCKASQDINSYLSWFHHKPGKSPKTLIYRANRLVDGVPSRFSGSGSGQDYSLTISSLDYEDMGIYYCQQYDESPWTFGGGTKLEMKGGGGSGGGGSGGGGSNIQLVQSGPELKKPGETVKISCKASGYTFTNYGMNWVKQAPGKGLRWMGWINTHTGEPTYADDFKGRFAFSLETSASTAYLQINNLKNEDTATYFCTRRGYDWYFDVWGAGTTVTVSSSGTTTPAPRPPTPAPTIASQPLSLRPEACRPAAGGAVHTRGLDFACDIYIWAPLAGTCGVLLLSLVITLYCKRGRKKLLYIFKQPFMRPVQTTQEEDGCSCRFPEEEEGGCELRVKFSRSADAPAYKQGQNQLYNELNLGRREEYDVLDKRRGRDPEMGGKPRRKNPQEGLYNELQKDKMAEAYSEIGMKGERRRGKGHDGLYQGLSTATKDTYDALHMQALPPRFE
For the molecule B7, in experiment [1], the “elimination of CCRF-CEM cells” value is approximately 100%.

Source of the values: patent US20240000838A1 (SIMCERE INNOVATION, published 2024).
